Biological target: T1, Ec86 retron RT (Escherichia coli, UniProt P23070 P23070:1-320)
T1 sequence: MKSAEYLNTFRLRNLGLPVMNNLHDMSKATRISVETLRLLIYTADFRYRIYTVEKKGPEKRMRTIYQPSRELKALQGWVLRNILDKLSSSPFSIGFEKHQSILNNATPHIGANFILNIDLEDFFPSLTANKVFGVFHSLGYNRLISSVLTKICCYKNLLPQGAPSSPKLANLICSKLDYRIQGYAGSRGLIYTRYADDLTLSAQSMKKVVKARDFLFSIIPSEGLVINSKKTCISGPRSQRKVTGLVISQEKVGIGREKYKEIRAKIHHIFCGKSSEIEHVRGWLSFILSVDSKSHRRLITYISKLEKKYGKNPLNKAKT
Test: msdDNA qPCR, 37 C 2 h
Conditions: tags: N-terminal Strep tag
Protocol: The Ec86 RT was co-expressed with the ncRNA substrate (final 100 nM) in a cell-free expression system) supplemented with dNTPs (final 0.3 mM). Expression constructs were codon-optimized for E. coli and contained an N-terminal single Strep tag. After incubation for 2 h at 37° C., the reaction was quenched by heat denaturation at 95° C. for 2 min, followed by treatment by RNase A for 30 min at 37° C. […] The resulting reverse transcription products, herein referred to as msdDNA, were diluted prior to qPCR to ensure msdDNA concentrations were within the linear range of detection. The amount of msdDNA was quantified by extrapolating values from a standard curve generated with a DNA template of known concentrations.

B1: Ec86 wild-type ncRNA (ssRNA)
RNA: GGAUGCGCACCCUUAGCGAGAGGUUUAUCAUUAAGGUCAACCUCUGGAUGUUGUUUCGGCAUCCUGCAUUGAAUCUGAGUUACUGUCUGUUUUCCUUGUUGGAACGGAGAGCAUCGCCUGAUGCUCUCCGAGCCAACCAGGAAACCCGUUUUUUCUGACGUAAGGGUGCGCAACUUUC
Does B1 bind?
Result: binds

Source: US20260132392, “GENE EDITING SYSTEMS COMPRISING REVERSE TRANSCRIPTASES” (Metagenomi, Inc., published 2026)
